This note sets out measurements from patent US20060148057A1, “Thioredoxin mutants and uses thereof” (priority 2002, published 2006).

The subject of this experiment is caspase 3. Kind of experiment: ASK1-induced caspase 3 activity assay in BAEC (Ac-DEVD-AMC substrate). Particulars: co-expression with ASK1; n=4, p<0.05. The class given is cell-based, Bovine. The protocol:
Caspase 3 activity assay: Caspase 3 activity was measured with a Caspase 3 fluorescence kit (Sigma) according to the Manufacturer's protocol. Briefly, BAEC were harvested in Caspase 3 lysis buffer (25 mM Hepes, pH 7.4, 5 mM CHAPS, 5 mM DTT) and incubated on ice for 15-20 min followed by a centrifugation at 14,000× g for 10-15 min at 4° C. For each reaction, 5 μl (200 μg) of cell lysate was incubated with 200 μl of 16 μM Caspase 3 peptide substrate acetyl-ASP-Glu-Val-Asp-7 amido-4-methylcoumarin (Ac-DEVD-AMC) in the assay buffer (25 mM Hepes, pH 7.4, 5 mM EDTA, 0.1% CHAPS, 5 mM DTT) in the presence or absence of 100 μM Caspase 3 inhibitor (Ac-DEVD-CHO). The reaction was incubated in the dark for 1-1.5 h and fluorescence was measured in a fluorescence plate reader. The measured fluorescence was used as an arbitrary unit.
Then the effects. of Trx on ASK1-induced caspase 3 activation, a hallmark of the execution of apoptotic cell death (Green D R. Apoptotic pathways: paper wraps stone blunts scissors. Cell. 102:1-4 (2000); Hengartner MO. The biochemistry of apoptosis. Nature. 407:770-6 2000)) was examined. Caspase 3 activity was determined by an in vitro assay using peptide substrate acetyl-ASP-Glu-Val-Asp-7 amido-4-methylcounarin (Ac-DEVD-AMC). Overexpression of ASK1 in BAEC increased caspase 3 activity compared to the control cells (FIG. 6B).

B1: Trx-CS: double-mutant of C32S and C35S of Trx (protein)
chain: MVKQIESKTAFQEALDAAGDKLVVVDFSATWSGPSKMIKPFFHSLSEKYSNVIFLEVDVDDCQDVASECEVKCMPTFQFFKKGQKVGEFSGANKEKLEATINELV
modifications: left off: a dimerising Fc or GST; large carriers; small tags and cut ends
For B1, the “inhibition of ASK1-induced caspase 3 activity” value is recorded as “failed to block”.
